We go through one substance from patent US20210147547A1.

The target in this experiment is PD-L1 (UniProt Q9NZQ7). Put plainly: in vitro Biacore assay (SPR); format not stated. (In general: In SPR one partner is held on a chip, and binding of the other changes the refractive index at the surface.)
Sequence of UniProt Q9NZQ7 (Q9NZQ7 19-238 limits assumed): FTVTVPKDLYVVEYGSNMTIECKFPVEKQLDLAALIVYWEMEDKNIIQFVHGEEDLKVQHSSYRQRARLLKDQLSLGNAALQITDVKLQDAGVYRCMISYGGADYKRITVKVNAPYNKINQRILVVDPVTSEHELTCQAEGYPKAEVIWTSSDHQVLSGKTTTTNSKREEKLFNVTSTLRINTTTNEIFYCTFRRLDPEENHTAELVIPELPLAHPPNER

The substance FAZ053 (antibody) had an equilibrium dissociation constant (Kd) of 0.14 nM.

Broadly, the Kd is a measure of binding affinity in units of concentration. Lower therefore signals higher affinity.
